{"source": "paper PMC6232131", "origin": "cited, not measured here", "biological_target": "fibrinogen beta (Homo sapiens) (UniProt P02675)", "sequence (P02675 45-491)": "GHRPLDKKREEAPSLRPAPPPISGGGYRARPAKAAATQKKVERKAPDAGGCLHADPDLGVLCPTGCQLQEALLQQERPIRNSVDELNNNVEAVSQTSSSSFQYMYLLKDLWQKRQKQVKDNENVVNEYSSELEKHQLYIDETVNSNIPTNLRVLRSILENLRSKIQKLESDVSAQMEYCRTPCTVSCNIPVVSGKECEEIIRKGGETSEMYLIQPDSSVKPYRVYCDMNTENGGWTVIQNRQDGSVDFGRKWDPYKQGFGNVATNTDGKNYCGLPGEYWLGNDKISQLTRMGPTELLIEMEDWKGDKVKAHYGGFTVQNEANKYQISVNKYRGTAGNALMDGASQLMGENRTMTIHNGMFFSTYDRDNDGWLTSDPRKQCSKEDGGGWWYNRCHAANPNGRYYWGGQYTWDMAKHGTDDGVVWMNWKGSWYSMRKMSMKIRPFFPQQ", "note": "pKd: −log10 of the molar value.", "data": [{"substance": "SdrG N2N3 (from UniProt Q9KI13)", "values": [{"measurement": "pKd", "value": 6.40}]}]}
